# Measurements reported in patent US12589164.
# B1: MMP2 (protein)
# chain: YNFFPRKPKWDKNQITYRIIGYTPDLDPETVDDAFARAFQVWSDVTPLRFSRIHDGEADIMINFGRWEHGDGYPFDGKDGLLAHAFAPGTGVGGDSHFDDDELWTLGEGQVVRVKYGNADGEYCKFPFLFNGKEYNSCTDTGRSDGFLWCSTTYNFEKDGKYGFCPHEALFTMGGNAEGQPCKFPFRFQGTSYDSCTTEGRTDGYRWCGTTEDYDRDKKYGFCPETAMSTVGGNSEGAPCVFPFTFLGNKYESCTSAGRSDGKMWCATTANYDDDRKWGFCPDQGYSLFLVAAHEFGHAMGLEHSQDPGALMAPIYTYTKNFRLSQDDIKGIQELYGASPDIDLGTGPTPTLGPVTPEICKQDIVFDGIAQIRGEIFFFKDRFIWRTVTPRDKPMGPLLVATFWPELPEKIDAVYEAPQEEKAVFFAGNEYWIYSASTLERGYPKPLTSLGLPPDVQRVDAAFNWSKNKKTYIFAGDKFWRYNEVKKKMDPGFPKLIADAWNAIPDNLDAVVDLQGGGHSYFFKGAYYLKLENQSLKSVKFGSIKSDWLGC
# B2: membrane type serine protease 1 (MT-SP1) (protein)
# chain: VVGGTDADEGEWPWQVSLHALGQGHICGASLISPNWLVSAAHCYIDDRGFRYSDPTQWTAFLGLHDQSQRSAPGVQERRLKRIISHPFFNDFTFDYDIALLELEKPAEYSSMVRPICLPDASHVFPAGKAIWVTGWGHTQYGGTGALILQKGEIRVINQTTCENLLPQQITPRMMCVGFLSGGVDSCQGDSGGPLSSVEADGRIFQAGVVSWGDGCAQRNKPGVYTRLPLFRDWIKENTGV
# Key:
# [1] = target: (MCA)-His-Gln-Ser-Arg-Pro-Trp-Gly-Leu-Gly-Ser-Lys (DNP)-D-Arg (SEQ ID NO: 660)
# [2] = target: (MCA)-His-Gln-Ser-Arg-Ser-Ala-Ile-Ala-Leu-Gly-Ser-Lys (DNP)-D-Arg (SEQ ID NO: 655)
# [3] = target: (MCA)-His-Gln-Ser-Arg-Ser-Ala-Ile-Ala-Leu-X1-Gly-Lys (DNP)-D-Arg (SEQ ID NO: 654) where X1 is Y
# [4] = target: (MCA)-His-Gln-Ser-Arg-Ser-Ala-Ile-Ala-Leu-X1-X2-Lys (DNP)-D-Arg (SEQ ID NO: 653) where X1 is Y and X2 is A
# [5] = target: (MCA)-His-Gln-Ser-Arg-Ser-Gly-Pro-Trp-Gly-Leu-X1-Lys (DNP)-D-Arg (SEQ ID NO: 659) where X1 is absent
# [6] = target: (MCA)-His-Gln-Ser-Arg-Ser-Pro-Trp-Gly-Gly-Ser-Lys (DNP)-D-Arg (SEQ ID NO: 661)
# [7] = target: (MCA)-His-Gln-Ser-Arg-Ser-Pro-Trp-Gly-Leu-Gly-Lys (DNP)-D-Arg (SEQ ID NO: 665)
# [8] = target: (MCA)-Ser-Pro-Trp-Gly-Leu-His-Gln-Ser-Arg-Gly-Lys (DNP)-D-Arg (SEQ ID NO: 663)
# [9] = target: (MCA)-Ser-Pro-Trp-Gly-Leu-His-Gln-Ser-Arg-Ser-Lys (DNP)-D-Arg (SEQ ID NO: 657)
# [10] = target: (MCA)-Ser-Pro-Trp-Gly-Leu-His-Gln-Ser-Lys-Ser-Lys (DNP)-D-Arg (SEQ ID NO: 664)
# [11] = target: D-Arg-Lys (DNP)-Ala-Ile-Ala-Leu-His-Gln-Ser-Arg-Ser-Lys (MCA)-D-Arg (SEQ ID NO: 658)
# [12] = target: peptide probe with CM … (SEQ ID NO: 641)
# [13] = target: peptide probe with CM … (SEQ ID NO: 642)
# [14] = target: peptide probe with CM … (SEQ ID NO: 643)
# [15] = target: peptide probe with CM … (SEQ ID NO: 644)
# [16] = target: peptide probe with CM … (SEQ ID NO: 645)
# [17] = target: peptide probe with CM … (SEQ ID NO: 646)
# [18] = target: peptide probe with CM … (SEQ ID NO: 647)
# [19] = target: peptide probe with CM … (SEQ ID NO: 639)
# [20] = target: peptide probe with CM … (SEQ ID NO: 648)
# [21] = target: peptide probe with CM … (SEQ ID NO: 649)
# [22] = target: peptide probe with CM … (SEQ ID NO: 650)
protein,measurement,setting,value
B1,Probe Cleavage (pM/s),[1],4020 pM/s
same,Probe Cleavage (pM/s),[2],76.9 pM/s
same,Probe Cleavage Kcat/KM,[2],4900 M⁻¹ s⁻¹
same,Probe Cleavage (pM/s),[3],434 pM/s
same,Probe Cleavage Kcat/KM,[3],67000 M⁻¹ s⁻¹
same,Probe Cleavage (pM/s),[4],468 pM/s
same,Probe Cleavage Kcat/KM,[4],29000 M⁻¹ s⁻¹
same,Probe Cleavage (pM/s),[5],94.8 pM/s
same,Probe Cleavage (pM/s),[6],61.6 pM/s
same,Probe Cleavage (pM/s),[7],44.2 pM/s
same,Probe Cleavage (pM/s),[8],6840 pM/s
same,Probe Cleavage (pM/s),[9],2550 pM/s
same,Probe Cleavage Kcat/KM,[9],54000 M⁻¹ s⁻¹
same,Probe Cleavage (pM/s),[10],6640 pM/s
same,Probe Cleavage (pM/s),[11],4220 pM/s
same,Probe Cleavage Kcat/KM,[11],17000 M⁻¹ s⁻¹
same,Probe Cleavage (pM/s),[12],726 pM/s
same,Probe Cleavage (pM/s),[13],692 pM/s
same,Probe Cleavage (pM/s),[14],623 pM/s
same,Probe Cleavage (pM/s),[15],696 pM/s
same,Probe Cleavage (pM/s),[16],594 pM/s
same,Probe Cleavage (pM/s),[17],1390 pM/s
same,Probe Cleavage (pM/s),[18],65.4 pM/s
same,Probe Cleavage (pM/s),[19],17600 pM/s
same,Probe Cleavage (pM/s),[20],488 pM/s
same,Probe Cleavage (pM/s),[21],61.1 pM/s
same,Probe Cleavage (pM/s),[22],410 pM/s
B2,Probe Cleavage (pM/s),[1],32 pM/s
same,Probe Cleavage (pM/s),[2],Above limit of quantitation
same,Probe Cleavage Kcat/KM,[2],510000 M⁻¹ s⁻¹
same,Probe Cleavage (pM/s),[3],1960 pM/s
same,Probe Cleavage Kcat/KM,[3],790000 M⁻¹ s⁻¹
same,Probe Cleavage (pM/s),[4],1750 pM/s
same,Probe Cleavage Kcat/KM,[4],630000 M⁻¹ s⁻¹
same,Probe Cleavage (pM/s),[5],9930 pM/s
same,Probe Cleavage (pM/s),[6],3470 pM/s
same,Probe Cleavage (pM/s),[7],1210 pM/s
same,Probe Cleavage Kcat/KM,[7],35000 M⁻¹ s⁻¹
same,Probe Cleavage (pM/s),[8],540 pM/s
same,Probe Cleavage (pM/s),[9],1280 pM/s
same,Probe Cleavage Kcat/KM,[9],28000 M⁻¹ s⁻¹
same,Probe Cleavage (pM/s),[10],1630 pM/s
same,Probe Cleavage (pM/s),[11],11500 pM/s
same,Probe Cleavage Kcat/KM,[11],55000 M⁻¹ s⁻¹
same,Probe Cleavage (pM/s),[12],Above limit of quantitation
same,Probe Cleavage (pM/s),[13],1860 pM/s
same,Probe Cleavage (pM/s),[14],11300 pM/s
same,Probe Cleavage (pM/s),[15],8 pM/s
same,Probe Cleavage (pM/s),[16],7330 pM/s
same,Probe Cleavage (pM/s),[17],Above limit of quantitation
same,Probe Cleavage (pM/s),[18],Above limit of quantitation
same,Probe Cleavage (pM/s),[19],10800 pM/s
same,Probe Cleavage (pM/s),[20],4120 pM/s
same,Probe Cleavage (pM/s),[21],7780 pM/s
same,Probe Cleavage (pM/s),[22],7920 pM/s
